The results in this text go back to PMC7468457.

Test [1] addresses AT1R-Rluc (AngII type 1 receptor fused to Renilla luciferase) (human) (UniProt P30556).
Test [2] has the same target. The source holds these as a separate data set.
The target is the same in test [3]. This is another data set of the same source.
Test [4] shares this target. This is another data set of the same source.
The target is the same in test [5]. The source holds these as a separate data set.
The target is the same in test [6]. This is another data set of the same source.

UniProt P30556, sequence (P30556 whole entry, the tested form may be a part): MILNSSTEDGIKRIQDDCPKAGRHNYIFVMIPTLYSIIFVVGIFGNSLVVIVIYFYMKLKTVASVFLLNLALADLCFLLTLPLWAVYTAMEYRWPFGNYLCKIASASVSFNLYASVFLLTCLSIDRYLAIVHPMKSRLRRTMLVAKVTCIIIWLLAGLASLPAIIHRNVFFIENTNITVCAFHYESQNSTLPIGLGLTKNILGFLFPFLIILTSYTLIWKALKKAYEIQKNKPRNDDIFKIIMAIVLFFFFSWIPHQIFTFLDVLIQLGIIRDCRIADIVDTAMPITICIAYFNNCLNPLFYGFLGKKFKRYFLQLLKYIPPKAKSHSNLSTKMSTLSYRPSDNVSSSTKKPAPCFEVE

B1: PAR1 (untagged protease-activated receptor 1) (receptor)
chain: SFLLRNPNDKYEPFWEDEEKNESGLTEYRLVSINKSSPLQKQLPAFISEDASGYLTSSWLTLFVPSVYTGVFVVSLPLNIMAIVVFILKMKVKKPAVVYMLHLATADVLFVSVLPFKISYYFSGSDWQFGSELCRFVTAAFYCNMYASILLMTVISIDRFLAVVYPMQSLSWRTLGRASFTCLAIWALAIAGVVPLLLKEQTIQVPGLNITTCHDVLNETLLEGYYAYYFSAFSAVFFFVPLIISTVCYVSIIRCLSSSAVANRSKKSRALFLSAAVFCIFIICFGPTNVLLIAHYSFLSHTSTTEAAYFAYLLCVCVSSISCCIDPLIYYYASSECQRYVYSILCCKESSDPSSYNSSGQLMASKMDTCSSNLNNSIYKKLLT
With B1, in test [1], the BRET increase between AT1R-Rluc and Venus-Gαq by thrombin 1 U/ml with PAR1 overexpression, dose-response to AngII (Figure 1D) (% of AngII response) was in the range of 70 to 75; the BRET increase between AT1R-Rluc and yPET-β-arrestin 2 by thrombin 1 U/ml with PAR1 overexpression (Figure 1F) (% of AngII response) is 25. The same molecule returned a sequential real-time BRET between AT1R-Rluc and yPET-β-arrestin 2, PAR1 overexpressed, vehicle then thrombin 1 U/ml (% of AngII response) in test [2] of 50. In test [3], this molecule came in with an AT1R endosomal trafficking (BRET between AT1R-Rluc and Venus-Rab5), PAR1 overexpressed and co-activated of 45%; an AT1R endosomal trafficking (BRET between AT1R-Rluc and Venus-Rab7), PAR1 overexpressed and co-activated of 41%. Besides, in test [4], the real-time BRET between AT1R-Rluc and Venus-Gαq, PAR1 overexpressed, AngII 10 nM and thrombin 1 U/ml together (% of AngII response) came to 207; the real-time BRET between AT1R-Rluc and Venus-Gαq, PAR1 overexpressed, thrombin 1 U/ml alone (% of AngII response) turned out to be 79; the real-time BRET between AT1R-Rluc and yPET-β-arrestin 2, PAR1 overexpressed, AngII 10 nM and thrombin 1 U/ml together (% of AngII response) is 218; the real-time BRET between AT1R-Rluc and yPET-β-arrestin 2, PAR1 overexpressed, thrombin 1 U/ml alone (% of AngII response) was 44. Moreover, in test [5], the Emax of thrombin dose-response, BRET between AT1R-Rluc and Venus-Gαq, PAR1 overexpressed, thrombin alone; 10 nM AngII alone taken as 100% is 211%; the Emax of thrombin dose-response, BRET between AT1R-Rluc and Venus-Gαq, PAR1 overexpressed, with 10 nM AngII is 342%; the Emax of thrombin dose-response, BRET between AT1R-Rluc and yPET-β-arrestin 2, PAR1 overexpressed, thrombin alone; 10 nM AngII alone taken as 100% is 102%; the Emax of thrombin dose-response, BRET between AT1R-Rluc and yPET-β-arrestin 2, PAR1 overexpressed, with 10 nM AngII was 299%. The IP1 production in HEK293 cells coexpressing AT1R-Rluc and PAR1, AngII 10 nM and thrombin 1 U/ml together in test [6] stood at 160%.
